US20240117018A1

How the values were obtained:
[1] = molecular target: HIV-1 Env pseudovirus X1632_S2_B10 (HIV-1); assay: cell-based or functional assay
[2] = molecular target: HIV-1 Env pseudovirus X1193_c1 (HIV-1); assay: cell-based or functional assay
[3] = molecular target: HIV-1 Env pseudovirus CNE5 (HIV-1); assay: cell-based or functional assay
[4] = molecular target: HIV-1 Env pseudovirus A07412M1.vrc12 (HIV-1); assay: cell-based or functional assay
[5] = molecular target: HIV-1 Env pseudovirus BJOX028000.10.3 (HIV-1); assay: cell-based or functional assay
[6] = molecular target: HIV-1 Env pseudovirus T251-18 (HIV-1); assay: cell-based or functional assay
[7] = molecular target: HIV-1 Env pseudovirus P1981_C5_3 (HIV-1); assay: cell-based or functional assay
[8] = molecular target: HIV-1 Env pseudovirus R1166.c01 (HIV-1); assay: cell-based or functional assay
[9] = molecular target: HIV-1 Env pseudovirus 0815.v3.c3 (HIV-1); assay: cell-based or functional assay
[10] = molecular target: HIV-1 Env pseudovirus 89-F1_2_25 (HIV-1); assay: cell-based or functional assay
[11] = molecular target: HIV-1 Env pseudovirus 6041.v3.c23 (HIV-1); assay: cell-based or functional assay
[12] = molecular target: HIV-1 Env pseudovirus 6545.v4.c1 (HIV-1); assay: cell-based or functional assay
[13] = molecular target: HIV-1 Env pseudovirus BJOX015000.11.5 (HIV-1); assay: cell-based or functional assay
[14] = molecular target: HIV-1 Env pseudovirus P0402_c2_11 (HIV-1); assay: cell-based or functional assay
[15] = molecular target: HIV-1 Env pseudovirus 3103.v3.c10 (HIV-1); assay: cell-based or functional assay
[16] = molecular target: HIV-1 Env pseudovirus X2131_C1_B5 (HIV-1); assay: cell-based or functional assay
[17] = molecular target: HIV-1 Env pseudovirus 6952.v1.c20 (HIV-1); assay: cell-based or functional assay
[18] = molecular target: HIV-1 Env pseudovirus T278-50 (HIV-1); assay: cell-based or functional assay
[19] = molecular target: HIV-1 Env pseudovirus BJOX009000.02.4 (HIV-1); assay: cell-based or functional assay
[20] = molecular target: HIV-1 Env pseudovirus R3265.c06 (HIV-1); assay: cell-based or functional assay
[21] = molecular target: HIV-1 Env pseudovirus T255-34 (HIV-1); assay: cell-based or functional assay
[22] = molecular target: HIV-1 Env pseudovirus BJOX010000.06.2 (HIV-1); assay: cell-based or functional assay
[23] = molecular target: HIV-1 Env pseudovirus 620345.c01 (HIV-1); assay: cell-based or functional assay
[24] = molecular target: HIV-1 Env pseudovirus C4118.c09 (HIV-1); assay: cell-based or functional assay
[25] = molecular target: HIV-1 Env pseudovirus C1080.c03 (HIV-1); assay: cell-based or functional assay
[26] = molecular target: HIV-1 Env pseudovirus 231965.c01 (HIV-1); assay: cell-based or functional assay
[27] = molecular target: HIV-1 Env pseudovirus 6480.v4.c25 (HIV-1); assay: cell-based or functional assay
[28] = molecular target: HIV-1 Env pseudovirus 6540.v4.c1 (HIV-1); assay: cell-based or functional assay
[29] = molecular target: HIV-1 Env pseudovirus R2184.c04 (HIV-1); assay: cell-based or functional assay
[30] = molecular target: HIV-1 Env pseudovirus 231966.c02 (HIV-1); assay: cell-based or functional assay
[31] = molecular target: HIV-1 Env pseudovirus 3301.v1.c24 (HIV-1); assay: cell-based or functional assay
[32] = molecular target: HIV-1 Env pseudovirus X1254_c3 (HIV-1); assay: cell-based or functional assay
[33] = molecular target: HIV-1 Env pseudovirus 6811.v7.c18 (HIV-1); assay: cell-based or functional assay
[34] = molecular target: HIV-1 Env pseudovirus 235-47 (HIV-1); assay: cell-based or functional assay
[35] = molecular target: HIV-1 Env pseudovirus 3016.v5.c45 (HIV-1); assay: cell-based or functional assay
[36] = molecular target: HIV-1 Env pseudovirus 211-9 (HIV-1); assay: cell-based or functional assay
[37] = molecular target: HIV-1 Env pseudovirus X2088_c9 (HIV-1); assay: cell-based or functional assay
[38] = molecular target: HIV-1 Env pseudovirus C2101.c01 (HIV-1); assay: cell-based or functional assay
[39] = molecular target: HIV-1 Env pseudovirus BJOX025000.01.1 (HIV-1); assay: cell-based or functional assay
[40] = molecular target: HIV-1 Env pseudovirus 3817.v2.c59 (HIV-1); assay: cell-based or functional assay
[41] = molecular target: HIV-1 Env pseudovirus T250-4 (HIV-1); assay: cell-based or functional assay
[42] = molecular target: HIV-1 Env pseudovirus C3347.c11 (HIV-1); assay: cell-based or functional assay
[43] = molecular target: HIV-1 93TH057 gp120 coree (HIV-1); assay: EBI PISA on PDB 5te6 (structure not solved in this filing)
[44] = molecular target: monomeric HIV-1 Ba-L gp120 (HIV-1 Ba-L); assay: retention on the gp120 affinity column
[45] = molecular target: HIV-1 93TH057 gp120 coree (HIV-1); assay: EBI PISA on PDB 3ngb (structure not solved in this filing)

Substance: 45-46 (antibody)
- IC50 (Titer in TZM.bl cells) [1]: 0.07 µg/mL
- IC80 (Titer in TZM.bl cells) [1]: > 50 µg/mL
- IC50 (Titer in TZM.bl cells) [2]: 0.04 µg/mL
- IC80 (Titer in TZM.bl cells) [2]: 0.16 µg/mL
- IC50 (Titer in TZM.bl cells) [3]: 0.09 µg/mL
- IC80 (Titer in TZM.bl cells) [3]: 0.41 µg/mL
- IC50 (Titer in TZM.bl cells) [4]: 0.03 µg/mL
- IC80 (Titer in TZM.bl cells) [4]: 0.13 µg/mL
- IC50 (Titer in TZM.bl cells) [5]: 0.07 µg/mL
- IC80 (Titer in TZM.bl cells) [5]: > 50 µg/mL
- IC50 (Titer in TZM.bl cells) [6]: 5.26 µg/mL
- IC80 (Titer in TZM.bl cells) [6]: 5.26 µg/mL
- IC50 (Titer in TZM.bl cells) [7]: 0.05 µg/mL
- IC80 (Titer in TZM.bl cells) [7]: 0.22 µg/mL
- IC50 (Titer in TZM.bl cells) [8]: 1.68 µg/mL
- IC80 (Titer in TZM.bl cells) [8]: 1.68 µg/mL
- IC50 (Titer in TZM.bl cells) [9]: 0.01 µg/mL
- IC80 (Titer in TZM.bl cells) [9]: 0.03 µg/mL
- IC50 (Titer in TZM.bl cells) [10]: > 50 µg/mL
- IC80 (Titer in TZM.bl cells) [10]: > 50 µg/mL
- IC50 (Titer in TZM.bl cells) [11]: 0.01 µg/mL
- IC80 (Titer in TZM.bl cells) [11]: 0.04 µg/mL
- IC50 (Titer in TZM.bl cells) [12]: > 50 µg/mL
- IC80 (Titer in TZM.bl cells) [12]: > 50 µg/mL
- IC50 (Titer in TZM.bl cells) [13]: 0.06 µg/mL
- IC80 (Titer in TZM.bl cells) [13]: 0.38 µg/mL
- IC50 (Titer in TZM.bl cells) [14]: 0.06 µg/mL
- IC80 (Titer in TZM.bl cells) [14]: 0.26 µg/mL
- IC50 (Titer in TZM.bl cells) [15]: 1.66 µg/mL
- IC80 (Titer in TZM.bl cells) [15]: 6.57 µg/mL
- IC50 (Titer in TZM.bl cells) [16]: 0.2 µg/mL
- IC80 (Titer in TZM.bl cells) [16]: 0.9 µg/mL
- IC50 (Titer in TZM.bl cells) [17]: 0.02 µg/mL
- IC80 (Titer in TZM.bl cells) [17]: 0.07 µg/mL
- IC50 (Titer in TZM.bl cells) [18]: > 30 µg/mL
- IC80 (Titer in TZM.bl cells) [18]: > 30 µg/mL
- IC50 (Titer in TZM.bl cells) [19]: 0.26 µg/mL
- IC80 (Titer in TZM.bl cells) [19]: 1.16 µg/mL
- IC50 (Titer in TZM.bl cells) [20]: 0.04 µg/mL
- IC80 (Titer in TZM.bl cells) [20]: 0.44 µg/mL
- IC50 (Titer in TZM.bl cells) [21]: 0.23 µg/mL
- IC80 (Titer in TZM.bl cells) [21]: 2.38 µg/mL
- IC50 (Titer in TZM.bl cells) [22]: 0.87 µg/mL
- IC80 (Titer in TZM.bl cells) [22]: 6.37 µg/mL
- IC50 (Titer in TZM.bl cells) [23]: > 30 µg/mL
- IC80 (Titer in TZM.bl cells) [23]: > 30 µg/mL
- IC50 (Titer in TZM.bl cells) [24]: 0.14 µg/mL
- IC80 (Titer in TZM.bl cells) [24]: 0.91 µg/mL
- IC50 (Titer in TZM.bl cells) [25]: 1.79 µg/mL
- IC80 (Titer in TZM.bl cells) [25]: 18 µg/mL
- IC50 (Titer in TZM.bl cells) [26]: 0.1 µg/mL
- IC80 (Titer in TZM.bl cells) [26]: 0.1 µg/mL
- IC50 (Titer in TZM.bl cells) [27]: 0.02 µg/mL
- IC80 (Titer in TZM.bl cells) [27]: 0.08 µg/mL
- IC50 (Titer in TZM.bl cells) [28]: > 50 µg/mL
- IC80 (Titer in TZM.bl cells) [28]: > 50 µg/mL
- IC50 (Titer in TZM.bl cells) [29]: 0.03 µg/mL
- IC80 (Titer in TZM.bl cells) [29]: 0.12 µg/mL
- IC50 (Titer in TZM.bl cells) [30]: 1.11 µg/mL
- IC80 (Titer in TZM.bl cells) [30]: 11.4 µg/mL
- IC50 (Titer in TZM.bl cells) [31]: 0.01 µg/mL
- IC80 (Titer in TZM.bl cells) [31]: 0.03 µg/mL
- IC50 (Titer in TZM.bl cells) [32]: 0.08 µg/mL
- IC80 (Titer in TZM.bl cells) [32]: 0.08 µg/mL
- IC50 (Titer in TZM.bl cells) [33]: 0.03 µg/mL
- IC80 (Titer in TZM.bl cells) [33]: 0.13 µg/mL
- IC50 (Titer in TZM.bl cells) [34]: 0.3 µg/mL
- IC80 (Titer in TZM.bl cells) [34]: 1.49 µg/mL
- IC50 (Titer in TZM.bl cells) [35]: > 30 µg/mL
- IC80 (Titer in TZM.bl cells) [35]: > 30 µg/mL
- IC50 (Titer in TZM.bl cells) [36]: > 50 µg/mL
- IC80 (Titer in TZM.bl cells) [36]: > 50 µg/mL
- IC50 (Titer in TZM.bl cells) [37]: > 50 µg/mL
- IC80 (Titer in TZM.bl cells) [37]: > 50 µg/mL
- IC50 (Titer in TZM.bl cells) [38]: 12.8 µg/mL
- IC80 (Titer in TZM.bl cells) [38]: > 50 µg/mL
- IC50 (Titer in TZM.bl cells) [39]: 0.18 µg/mL
- IC80 (Titer in TZM.bl cells) [39]: 10 µg/mL
- IC50 (Titer in TZM.bl cells) [40]: > 50 µg/mL
- IC80 (Titer in TZM.bl cells) [40]: > 50 µg/mL
- IC50 (Titer in TZM.bl cells) [41]: > 30 µg/mL
- IC80 (Titer in TZM.bl cells) [41]: > 30 µg/mL
- IC50 (Titer in TZM.bl cells) [42]: 0.03 µg/mL
- IC80 (Titer in TZM.bl cells) [42]: 0.18 µg/mL

Substance: N6 Fab
- buried surface area, CDR H3 [43]: 123 Å^2

Substance: Synagis (antibody)
- recovery on the gp120 affinity column [44]: < 1%

Substance: VRC01 Fab
- buried surface area, CDR H3 [45]: 160 Å^2
